Assay [1] addresses CNTO95. Briefly: flow cytometry: CNTO95 (10 ug/ml) staining of A375.S2 cells after preincubation with peptide at 200 ug/ml.
For assay [2], the target named is CNTO95. Briefly: flow cytometry: CNTO95 (10 ug/ml) staining of A375.S2 cells after preincubation with peptide at 100 ug/ml.
In assay [3] the target is CNTO95. Briefly: competitive ELISA: peptide preincubated with CNTO95, CNTO95 binding to αVβ3-coated plate detected.
In assay [4] the target is CNTO95. As to the kind of experiment: isothermal titration calorimetry, peptide titrated into 3 µM CNTO95, 25° C.
Assay [5] concerns the target CNTO95. As to the kind of experiment: isothermal titration calorimetry, peptide titrated into 3 µM CNTO95, 25° C. (commented: No binding).

B1: CEN2319 (peptide)
peptide: DFRSWWDLSGYR
notes: synthetic linear peptide, phage-display consensus (mimotope); also called 12p1; 12pG1
Regarding B1, the “Mean Channel Fluorescence” value in the assay with CNTO95 [1] is 11.6. In addition, the “Mean Channel Fluorescence” value with CNTO95 [2] worked out at 12.3. The molecule further showed an EC50 in the assay with CNTO95 [3] of 5.8 µM. In the assay with CNTO95 [4], the Kd was determined as 4.2 µM, the “Molar ratio (Peptide/CNTO95)” value worked out at 2.2 and the ΔH was -12000 cal/mol.

B2: CEN2553 (peptide)
peptide: DFRSWWDLEE
notes: synthetic peptide made from the consensus formula; C-terminal glutamates added for solubility
Take B2: the “Mean Channel Fluorescence” value amounted to 9.41 in the assay with CNTO95 [1] and 12.9 with CNTO95 [2].

B3: CEN2322 (peptide)
peptide: DYRTAADTTGLQ
notes: synthetic peptide with the D564-Q575 segment of the mature alphaV chain; also called alphaV segment; native peptide
As for B3, the “Mean Channel Fluorescence” value was determined as 92.4 with CNTO95 [1] and 90.5 in the assay with CNTO95 [2]. Also, the ΔH with CNTO95 [5] was -325 cal/mol.
